# Reference: a protein production outcome set (Wang et al. 2014)
# Experiment: label from the status in PepcDB records
row,Sequence,protein production
1,MVLVILDFVVEWRDRVMVRWWSLLLDQGIEWSVKVVKRLLDQGVEWFDMIRGCQSSPLLLLAIKMCTEATKSSQIIMMGVNLRSLKDGFIDKGNSRVHLMANMRKANSLDDDSKPDIHSRDRDPHNYTTS,failed
2,MGLQGQLSDVSSDSIPLMLLSLLAVFINHLRSFLLRLTSKSNPNLPVDDVSIASGLANIIVLADQLSLNRLFSYRCGDGGGGGSDCVVCLSKLKEGEEVRKLECRHVFHKKCLEGWLHQFNFTCPLCRSALVSDDCVSKTQRSVGRDLISCFSLH,failed
3,MLDVRARAALSGPLDRAAAMLDRPAVTPNRLTALGLLTGLASAGSAAAGWWPAAAALWLLSRLADGLDGPLARRRGTANSSGAGGFLDISADFLVYGAFVVGVAVGVGGPALPFLLVLLTYYVNGTAFLAFSSIAERTGRRGDGRLSGGRSLNFLGGLAEGGETIAVHTLWCLLPGFAHTIAWVWAAVVAVTAAHRVVTGYRQLR,failed
4,LYPILIGIYASVIPFYIALYSTFRLLSYIDENKAFSQISVKALNNIKHCTIAISILYMATMPFVYLLADKDDAPGLIIIGMVPIFASLVISVFSAVLQRLLQEAIDIKSENDLTV,failed
5,MEMKKMKKMDKMELLKQIMAVDFTIIDLSLYLNTHPMDKEAIAKHNAFVAQSHMLKGQYQKYYGMLTATNSCSPYPWQWIKEPWPWEYDANFRL,failed
6,MSDINKPFLVVIVGPTASGKTELSIELAKQINGEIISGDSMQVYKQMDIGTAKVTNEEMDGIPHYMIDILNPDDSFSVYDFKLRAQALIEDITSRGKIPIIAGGTGLYIQSLIYDYPFDDETVSKEVEQKTQLQLQKLEPLTNQEVHDYLATFDPQSAKDIHPNNRKRVLRAIEYYLNTKKLISSRKKVQQFTENYDTLLIGIEMSRKTLYSRINKRVDIMLGHGLFNEVKNLVEQGYESTQSMQAIGYKELVPVVNGELSIDQAVETLKQHSRQYAKRQLTWFKNKLTVQWFNRETMSLQMMLDEITTQINKRSSKHDCKPQHPRSSTREL,failed
7,MNELLLITFSPLVAGVLAWLVRIRGVRESLGILGAIVPLAFLIKLYPSLDHPIRATISLGGFELGFSMSHLNWVFSMIAAVVGLSAVFGMASTAKDSYEWLFSLMSLTGALGIFMAQDLVTFFIFWEVMTFSSFMMVLKFNRAASLKYLILSIIGAYSMLVAIGIIYAKTGTFTFADISAFFRKEAMLAMLGGKSTFSRFDMALIYLLFLMAFGVKAGMFPLHVWAPDAYSETDQSYTAIFSGVLSKTGVYGFILLYVLMYGKLLIDLGQFKGTPLFGYIIAFLGGLTIIIGGVLAALQEDIRKLFAYSSISQVGYILVGLGIGTSLGIEAAIYHAISHALFKGLFFLVVATIIYRTGKTEFKDFGGLAEKMPFTFAMAFIAILSLAGIPPLVGFASKWLIFEAVISQKLPILGGMLFFGSAIGFVYLIRFTYAVWFGQRPSDIEDTKDAPLPLAIGMGILGTLNVVFGVAPGLVAKELNAIFGNPVIGGNIWELDLGFGRYNALLVAIWLVIGVLIAAILYFLGASTRKVPVTDTYQSGNPVTMEYNLTIRRNFFLPLKETMAFWLRISFDKLYKDTWKAIEDFAETARNYIYNGNVQAYAWYLAIILLILAAMGV,failed
8,MLLFWVEFIGTFIGLFISAELIAKGADELEEVLGQGITGGILLGFITALPETIFVIIASLGGSLDVAFGSAIGGNILLFTVGAGLVGIVYFWKWKNNLVMDQEYQVENKFLIISTVALVLITLYSKLNVIAGVCLILIYVYYVIYRLRKFKRDKPIAKKEVDYVKISIFMVVGAILLIILSHYFVEQLDQISLSFGIPAVWISLVLSPIAGELEEKISAFRLITLSKKGGSLSLLSFVGSKIENNTVLLGIIGLFGDYSLRPVIPEMVSLILVNVSVLRVLFDRKLTVLESSLLIIAYAVIIIALYYL,failed
9,MKIILFLTLIVFTSCELYHYQECVRGTTVLLKEPCPSGTYEGNSPFHPLADNKFALTCTSTHFAFACADGTRHTYQLRARSVSPKLFIRQEEVQQELYSPLFLIVAALVFLILCFTIKRKTE,not failed
10,MIKVLIFFGIILLGLCISPWIVGNTGYVYIAAGDYQLETSLAFGIIMLIVFYALFQVLEWLVITVINLLLRSRFIPHQWRRRSAKKHTLMGALAIAEEDWPAAERAMIKGADNGELPALNLLAAARAAQHQNKTAERDQYLARAETQPLAANAVATTRTRYLLKQGEFTLARAELDKLAPTSKSKAPVLKLALELYRAQQDWEALKLLLPILKKRQILDDIQLNSLSVETHSALLQTASLKGEDALEQCWQWLSRDERNQSEFLAIYTMGLCRFNRKEQAIKLLSKKLRSSPESALLEVIPQIVTAHDTDIRKQLLKHEITHENNADYQRCLALLYQQTRDMKEAKTCWQNVCRIAPTKDSWLSLARIQEQLGEQGHANQSYRQAVTL,failed
11,MTAPKVFVSHASEDKARFVVDFARRLRENGVDAWLDQWEMKPGDSLVDKIFEEGLREARAVVIVLSATSVRKPWVREELNASVVNRISRGTKLIPVVIDDCDVPEALRSTVLEHHHHHH,failed
12,MNNGQPLKHRGVTVEDLLRLRSVRDPHYASDGTHGVFVQKSIDEEKQYCSHLYIWTEDGAVRQWTFGRWRDTRPRFSPDSKTIAFLSDRSGHTQLWLLPADGGEARQLTFFKNGVRDYVWAPDGTFLIALTTLGDNETIDDREEPKKKETKPADLKPRVVERLYYKSDASGFLDGKQAVLVCIDATSGKTEALTSREEEISSFAISPNGRTLAFMANRNEDPDTTFTRDIVLLDLESKAETNLTKGSGTFTSLAWSPDGTKLAAIGHDLAFLGATIHQLYVFEPERGTKRVLTADWDVHLGDAMVGDTHADAKGPGPIWKRDGTGLYVTASERGRVNVYFVPLDGPIVPIIEGDFHVYGLAIHPNEQQAVAAISEPTMIGDLYTISLESGTKTRLTRVNEALENEVTFADAEPFTYQSTDGWDIQGWIMKPPRLGDGEKAPLVVEIHGGPHTMYGFTFFHEFQLLASSGYVVLFTNPRGSHGYGQSFVNAVRGDYGGMDYEDIMAGVDAAIKQFAFIDETRLGVTGGSYGGFMTNWIVGHTNRFRAAVTQRSISNWLSFAGVSDIGYFFTKWEVGCDVWEDAERLWHHSPLKYVKNVRTPLLILHSEHDYRCPIEQAEQLFIALKQLGQETKLVRFPDANHDLSRTGNPALRLERLRQIVGWFDHYLKGPLD,failed
13,MVIGQKVLLARIPKMGDNYSTYLLDIEGTVCPISFVKETLFPYFTNKVPQLVQQDTRDSPVSNILSQFHIDNKEQLQAHILELVAKDVKDPILKQLQGYVWAHGYESGQIKAPVYADAIDFIKRKKRVFIYSSGSVKAQKLLFGYVQDPNAPAHDSLDLNSYIDGYFDINTSGKKTETQSYANILRDIGAKASEVLFLSDNPLELDAAAGVGIATGLASRPGNAPVPDGQKYQVYKNFETL,not failed
14,MITSNLFDLRRWRANMSAMRFFALTSAALPLALMLLTSSFPAAAAEKSAAATKKDVIVEQADANNSPKQHLDQLFSQLKRERDPEKASGIANEIRMEWNDSGSATVNLLMQWADKAIEEKRNPAALDFLDEAIALKPDYAESWNRRATLNFVMGNYRKSMSDIERVLDLEPRHFGALSGMAAILSNSGNDQLTLKAWERFLDIYPAERTAQEQANTLAEKLAGNRT,failed
